The source of these data is US11214614B2, “LTBP complex-specific inhibitors of TGFβ and uses thereof” (Scholar Rock, Inc., priority 2019, dated 2022).

Numbering of substitutions follows the chain as printed.

The conditions of data set [1]: literature reports (Frazier et al. 2007; Stauber et al. 2014, chronic ≥3 months); cited from earlier work.
Data set [2] concerns the target T1, huGARP proTGFβ1 (Homo sapiens, UniProt P01137). As to the kind of experiment: Octet (BLI) binding, IgG captured on AHC tips, antigen at 100 nM. The following applies: N.B. = non-binder under conditions of this assay; for ForteBio IgG KD Hu GARP-proTGFβ1 (M) Avid: Table 9, cycle 3, IgG1-agly, 1:1 fit; for ForteBio IgG KD Hu GARP-proTGFβ1 in solution (M) Avid: Table 10, same assay conditions as Table 9. In outline:
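Antibody loaded at 1 μg/mL onto anti-human Fc capture biosensors, then exposed to human GARP-proTGFβ1 at 100 nM in 1× kinetics buffer with 1000 rpm shaking. Association 3 min, dissociation 3 or 5 min; KD from 1:1 local full fit.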
In general terms: In BLI a coated tip is dipped into the sample, and binding shifts an interference pattern.

The target in data set [3] is T2, huLTBP1 proTGFβ1 (Homo sapiens, UniProt P01137+Q14766). Described as above. Conditions: Table 9, cycle 3, IgG1-agly; for Hu LTBP1-proTGFβ1 Kon: 1:1 fit; for Hu LTBP1-proTGFβ1 Koff: 5-minute dissociation. In a few lines:
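Antibodies were captured on anti-human Fc biosensors at 1 μg/mL (~7 nM), to a maximum response of 1 nm. Antigen complex was run at a single 100 nM in 1× kinetics buffer, shaking at 1000 rpm. Association was 3 min and dissociation 3 min (5 min in later rounds), with KD from a local, full 1:1 fit.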

For data set [4], the target named is T3, huLTBP3 proTGFβ1 (Homo sapiens, UniProt P01137+Q9NS15). The description is as above. The following applies: Table 9, cycle 3, IgG1-agly; for Hu LTBP3-proTGFβ1 Kon: 1:1 fit; for Hu LTBP3-proTGFβ1 Koff: 5-minute dissociation. In outline: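 Antibodies loaded at 1 μg/mL onto anti-human Fc sensors were exposed to each TGFβ1 complex at 100 nM in kinetics buffer. Association ran 3 min; dissociation was 3 min in one protocol and 5 min in another. KD came from a 1:1 fitting model.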
T3 sequence (P01137 30-390): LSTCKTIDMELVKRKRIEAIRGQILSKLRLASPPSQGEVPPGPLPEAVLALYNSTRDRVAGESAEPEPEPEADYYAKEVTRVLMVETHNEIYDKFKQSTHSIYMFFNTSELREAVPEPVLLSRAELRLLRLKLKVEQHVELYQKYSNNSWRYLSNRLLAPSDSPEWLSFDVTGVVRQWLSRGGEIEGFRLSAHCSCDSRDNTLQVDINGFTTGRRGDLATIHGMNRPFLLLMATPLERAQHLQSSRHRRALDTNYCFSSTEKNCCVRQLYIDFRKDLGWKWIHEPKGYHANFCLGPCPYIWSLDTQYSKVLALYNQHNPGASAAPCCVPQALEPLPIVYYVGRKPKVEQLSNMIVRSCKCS
T3 sequence (Q9NS15 44-1303): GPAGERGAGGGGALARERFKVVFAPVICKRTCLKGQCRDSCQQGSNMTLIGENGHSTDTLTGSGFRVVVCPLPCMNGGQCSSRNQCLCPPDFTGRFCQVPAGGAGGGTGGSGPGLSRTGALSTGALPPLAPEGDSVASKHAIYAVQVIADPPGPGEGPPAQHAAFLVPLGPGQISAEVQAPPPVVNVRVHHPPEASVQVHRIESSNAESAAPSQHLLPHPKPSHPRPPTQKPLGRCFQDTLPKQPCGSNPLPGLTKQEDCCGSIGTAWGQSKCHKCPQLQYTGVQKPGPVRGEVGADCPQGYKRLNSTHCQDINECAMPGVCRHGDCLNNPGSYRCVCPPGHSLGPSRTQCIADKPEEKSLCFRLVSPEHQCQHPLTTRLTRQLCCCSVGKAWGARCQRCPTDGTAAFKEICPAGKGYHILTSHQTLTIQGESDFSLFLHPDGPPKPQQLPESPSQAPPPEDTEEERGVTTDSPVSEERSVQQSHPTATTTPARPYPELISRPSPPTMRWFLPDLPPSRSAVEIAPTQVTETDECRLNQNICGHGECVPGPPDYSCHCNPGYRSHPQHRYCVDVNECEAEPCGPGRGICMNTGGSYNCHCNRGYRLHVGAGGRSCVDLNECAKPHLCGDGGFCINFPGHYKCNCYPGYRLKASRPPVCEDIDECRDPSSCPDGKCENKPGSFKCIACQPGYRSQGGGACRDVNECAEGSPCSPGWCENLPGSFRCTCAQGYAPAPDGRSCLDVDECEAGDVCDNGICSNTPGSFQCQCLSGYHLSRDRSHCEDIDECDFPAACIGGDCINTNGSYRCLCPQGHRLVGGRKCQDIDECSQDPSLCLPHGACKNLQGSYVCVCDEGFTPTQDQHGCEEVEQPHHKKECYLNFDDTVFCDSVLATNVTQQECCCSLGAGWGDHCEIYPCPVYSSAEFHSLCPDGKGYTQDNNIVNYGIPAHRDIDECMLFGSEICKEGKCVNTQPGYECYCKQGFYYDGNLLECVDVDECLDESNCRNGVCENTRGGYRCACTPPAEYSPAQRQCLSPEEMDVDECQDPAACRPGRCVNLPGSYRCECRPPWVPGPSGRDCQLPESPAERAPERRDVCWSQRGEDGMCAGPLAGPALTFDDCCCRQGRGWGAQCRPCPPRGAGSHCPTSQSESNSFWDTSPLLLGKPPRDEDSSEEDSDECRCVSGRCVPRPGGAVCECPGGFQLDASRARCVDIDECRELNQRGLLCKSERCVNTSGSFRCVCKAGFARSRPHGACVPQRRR

In data set [5] the target is T1, huGARP proTGFβ1. As to the kind of experiment: SPR (Biacore 8K) monovalent binding kinetics of Fabs, biotinylated antigen captured. Also noted: biotin (complex biotinylated). Conditions: Fab, huGARP proTGFb1. The method, then: (§1) A Biacore 8K system was employed to determine the monovalent binding affinity and the kinetic parameters for antigen binding of test antibodies. Association and dissociation kinetics of Fab fragments SR-AB42-HuFab, SR-AB63-HuFab and SR-AB43-HuFab to antigen complexes were measured, and resulting ka, kd and KD are provided below. Briefly, the binding kinetics were evaluated by surface plasmon resonance using Biacore 8K (GE Healthcare). Biotinylated capture antigens were immobilized to the chip (10 nM, ˜200 RU loading). A Biotin CAPture sensor chip was used to capture the biotinylated antigens. Fabs at 10, 5, 2.5, 1.25, and 0.6 nM concentrations were injected over the captured antigens. 0 nM was used as a reference. Affinities of LTBP antibodies to GARP and LRRC33 were confirmed using higher concentration of Fabs (100, 50, 25, 12.5, 6.25 nM). 0 nM was used as a reference. Multi-cycle kinetics was employed where each analyte concentration was injected in a separate cycle and the sensor chip surface was regenerated after each cycle. All the assays were carried out in freshly prepared 1×HBS-EP+buffer (10 mM HEPES, 150 mM NaCl, 3 mM EDTA, 0.05% Tween20, pH 7.4). Data were fit globally to a 1:1 binding model to obtain the kinetic parameters. The sensorgram for 0 nM analyte concentration was used as reference.
(§2) • 96 well plates—Greinerbio-one REF 650101 • Microplate Foils—GE Healthcare—CAT #28-9758-16 • Biotin CAPture Kit GE Healthcare product number 28920233 • Biacore running buffer—supplied as a 20× solution, diluted in Milli-Q water, TEKnova CAT #H8022 Method:
(§3) These experiments were performed using the Biacore 8K using the method “multi-cycle kinetics/affinity using Biotin CAPture kit.”
(§4) Data collection rate was set to 10 Hz and the Biotin CAPture step was performed for 300 seconds with a flow rate of 2 μL/minute. The Biotin CAPture reagent was used after a 1:5 dilution in 1× Biacore running buffer. Biotinylated ligands (the various complexes of TGFβ1) were utilized at a concentration of 10 nM and were immobilized to the sensor chip for 180 seconds with a flow rate of 10 μL/minute. The analytes, which are each of the Fabs, were tested at 10, 5, 2.5, 1.25, and 0.625 nM with a 0 nM control included. Analyte contact time was 120 seconds and the dissociation time was 900 seconds. The regeneration cycle utilized was 120 seconds with a flow rate of 10 μL/minute.
(§5) The evaluation method used was “multi-cycle affinity using capture” and a 1:1 binding model was used. […] Global fits were utilized for every KD determination.

Data set [6] deals with T2, huLTBP1 proTGFβ1. The data set is described as above. Also noted: biotin (complex biotinylated). The following applies: for ka / kd: Fab, huLTBP1 proTGFβ1, SR-AB42-HuFab average of five, SR-AB63-HuFab average of four replicate experiments. The method, then: as §1, §2, §3, §4, §5
Data set [7] deals with T3, huLTBP3 proTGFβ1. Described as above. Conditions: Fab, huLTBP3 proTGFb1. Also on record: biotin (complex biotinylated). The protocol:
as §1, §2, §3, §4, §5

The target in data set [8] is huLRRC33 proTGFβ1 (Homo sapiens, UniProt P01137). The description is as above. Conditions: Fab, huLRRC33 proTGFb1. Also noted: biotin (complex biotinylated); modified human kappa light chain signal peptide (N); Histidine tag (C). The method, then: as §1, §2, §3, §4, §5
Chain of huLRRC33 proTGFβ1 (P01137 30-390): as the sequence (P01137 30-390) above
Chain of huLRRC33 proTGFβ1 (Q86YC3 with tags, fused parts or gaps partner limits assumed): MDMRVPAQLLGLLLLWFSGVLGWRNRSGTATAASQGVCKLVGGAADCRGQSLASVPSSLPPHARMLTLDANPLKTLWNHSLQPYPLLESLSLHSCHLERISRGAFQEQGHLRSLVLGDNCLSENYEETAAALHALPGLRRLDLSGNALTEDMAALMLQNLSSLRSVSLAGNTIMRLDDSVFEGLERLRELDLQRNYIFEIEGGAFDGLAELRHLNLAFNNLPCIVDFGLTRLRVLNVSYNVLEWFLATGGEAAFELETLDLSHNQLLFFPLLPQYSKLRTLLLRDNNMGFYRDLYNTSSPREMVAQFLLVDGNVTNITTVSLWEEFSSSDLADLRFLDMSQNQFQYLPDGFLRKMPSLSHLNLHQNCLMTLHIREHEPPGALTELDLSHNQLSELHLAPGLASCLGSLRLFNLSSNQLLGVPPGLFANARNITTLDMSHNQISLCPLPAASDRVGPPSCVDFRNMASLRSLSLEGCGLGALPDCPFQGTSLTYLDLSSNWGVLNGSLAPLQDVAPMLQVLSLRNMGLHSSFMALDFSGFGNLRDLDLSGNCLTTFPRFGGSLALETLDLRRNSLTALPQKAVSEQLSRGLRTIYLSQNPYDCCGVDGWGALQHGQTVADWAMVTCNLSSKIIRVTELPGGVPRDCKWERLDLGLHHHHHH
Data set [9] is described as follows: Four-week toxicology study in rats. In kind it is in vivo, rat. An excerpt: Maximally tolerated dose (MTD): The term MTD generally refers to, in the context of safety/toxicology considerations, the highest amount of a test article (such as a TGFβ1 inhibitor) evaluated with no observed adverse effect level (NOAEL).
Therapeutic window: The term “therapeutic window” refers to a range of doses/concentrations that produces therapeutic response without causing significant/observable/unacceptable adverse effect (e.g., within adverse effects that are acceptable or tolerable) in subjects. Therapeutic window may be calculated as a ratio between […].
Toxicity: As used herein, the term “toxicity” or “toxicities” refers to unwanted in vivo effects in patients associated with a therapy administered to the patients, such as undesirable side effects and adverse events. “Tolerability” refers to a level of toxicities associated with a therapy or therapeutic regimen, which can be reasonably tolerated by patients, without discontinuing the therapy due to the toxicities (i.e., acceptable level of toxicities). Typically, toxicity/toxicology studies are carried out in one or more preclinical models prior to clinical development to assess safety profiles of a drug candidate (e.g., monoclonal antibody therapy). […]

For data set [10], the target named is T4, Murine LTBP3 proTGFβ1 (Mus musculus, UniProt P04202+Q61810).
T4 construct: biotin (complex biotinylated)
The data set is described as follows: SPR (Biacore 8K) monovalent binding kinetics of Fabs, biotinylated antigen captured. Conditions: Fab, Murine LTBP3 proTGFb1; average of two replicate experiments. The method, then:
as §1, §2, §3, §4, §5
On the technique in general: In SPR one partner is held on a chip, and binding of the other changes the refractive index at the surface.

The NOAEL is the highest tested level that showed no adverse finding.

T2 sequence (P01137 30-390): as the sequence (P01137 30-390) above
T2 sequence (Q14766 347-1721 limits assumed): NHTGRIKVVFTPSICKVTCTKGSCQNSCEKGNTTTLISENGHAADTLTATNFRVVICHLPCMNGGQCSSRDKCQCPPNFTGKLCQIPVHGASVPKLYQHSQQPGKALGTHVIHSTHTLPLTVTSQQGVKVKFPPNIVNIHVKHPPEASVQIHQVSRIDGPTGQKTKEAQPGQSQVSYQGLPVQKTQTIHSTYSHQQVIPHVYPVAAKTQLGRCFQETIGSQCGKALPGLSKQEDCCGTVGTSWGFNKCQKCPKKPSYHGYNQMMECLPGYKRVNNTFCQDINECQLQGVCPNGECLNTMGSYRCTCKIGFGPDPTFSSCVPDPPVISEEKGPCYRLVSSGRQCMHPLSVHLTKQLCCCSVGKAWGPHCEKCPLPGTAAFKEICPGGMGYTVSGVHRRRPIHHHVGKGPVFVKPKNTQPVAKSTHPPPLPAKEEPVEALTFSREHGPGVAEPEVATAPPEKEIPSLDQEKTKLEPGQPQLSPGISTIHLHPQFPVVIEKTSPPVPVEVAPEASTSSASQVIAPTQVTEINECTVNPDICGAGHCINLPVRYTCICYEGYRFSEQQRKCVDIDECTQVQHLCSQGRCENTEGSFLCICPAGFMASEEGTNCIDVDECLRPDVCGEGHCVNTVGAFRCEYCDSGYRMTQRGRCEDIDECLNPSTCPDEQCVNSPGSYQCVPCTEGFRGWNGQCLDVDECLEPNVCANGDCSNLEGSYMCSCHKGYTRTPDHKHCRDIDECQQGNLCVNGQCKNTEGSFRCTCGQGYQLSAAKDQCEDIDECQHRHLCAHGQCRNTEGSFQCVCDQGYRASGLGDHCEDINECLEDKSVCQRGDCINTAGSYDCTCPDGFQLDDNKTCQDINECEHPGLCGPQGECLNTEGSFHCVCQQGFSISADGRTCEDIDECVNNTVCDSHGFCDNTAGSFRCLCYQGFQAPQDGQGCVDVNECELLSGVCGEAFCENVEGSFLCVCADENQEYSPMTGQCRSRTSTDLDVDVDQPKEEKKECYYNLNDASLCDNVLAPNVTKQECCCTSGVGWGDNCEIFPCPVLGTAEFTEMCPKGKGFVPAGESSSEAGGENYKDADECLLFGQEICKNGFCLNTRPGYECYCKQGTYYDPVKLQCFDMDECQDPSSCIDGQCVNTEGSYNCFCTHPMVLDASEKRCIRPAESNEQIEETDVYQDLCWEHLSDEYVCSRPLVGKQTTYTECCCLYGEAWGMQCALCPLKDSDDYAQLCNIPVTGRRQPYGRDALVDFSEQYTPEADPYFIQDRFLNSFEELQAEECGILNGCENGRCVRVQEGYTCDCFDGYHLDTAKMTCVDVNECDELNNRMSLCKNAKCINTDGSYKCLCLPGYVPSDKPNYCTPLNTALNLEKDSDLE
T1 sequence (P01137 30-390): as the sequence (P01137 30-390) above
T1 sequence (Q14392 18-627 partner limits assumed): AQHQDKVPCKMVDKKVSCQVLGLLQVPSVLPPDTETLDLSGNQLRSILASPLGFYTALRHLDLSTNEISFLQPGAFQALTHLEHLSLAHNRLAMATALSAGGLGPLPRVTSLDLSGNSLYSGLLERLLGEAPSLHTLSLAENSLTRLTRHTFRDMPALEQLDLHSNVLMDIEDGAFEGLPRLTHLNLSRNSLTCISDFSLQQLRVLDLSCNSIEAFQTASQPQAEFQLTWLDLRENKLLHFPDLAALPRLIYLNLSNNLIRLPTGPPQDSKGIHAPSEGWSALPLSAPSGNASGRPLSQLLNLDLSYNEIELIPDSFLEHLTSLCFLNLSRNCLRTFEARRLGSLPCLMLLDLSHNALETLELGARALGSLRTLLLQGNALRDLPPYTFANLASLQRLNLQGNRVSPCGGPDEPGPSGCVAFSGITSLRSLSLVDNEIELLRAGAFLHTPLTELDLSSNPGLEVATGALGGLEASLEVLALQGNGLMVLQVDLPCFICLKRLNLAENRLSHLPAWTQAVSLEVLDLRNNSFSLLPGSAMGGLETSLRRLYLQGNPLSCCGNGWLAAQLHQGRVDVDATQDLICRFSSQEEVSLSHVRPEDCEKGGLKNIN

As to `O=C(NC1CCOCC1)c1ccc(-c2cc(-c3c[nH]nc3-c3ccccn3)ccn2)cc1` [GW788388], the Toxicity in rats entry in [1] is “induced physeal dysplasia in rats”.

B1: SR-AB62: cycle 3 light chain-optimized antibody, lineage SR-AB24; CDRs SEQ ID NO: 286-291 (antibody, V domains shown)
VH: QLQLQESGPGLAKPSETLSLTCTVSGGSIRSSSYYWGWIRQPPGKGLEWIGSISYSATTYYNPSLKSRVTISVDTSKNQFSLKLSSVTAADTAVYYCASDPSYDSAAGMDVWGQGTTVTVSS
VL: DIQMTQSPSSLSASVGDRVTITCRASKVISSYLNWYQQKPGKAPKLLIYYASSLQSGVPSRFSGSGSGTDFTLTISSLQPEDFATYYCQQSNDWPFTFGGGTKVEIK
For the molecule B1, in [2], the “ForteBio IgG KD Hu GARP-proTGFβ1 (M) Avid” value is “N.B” and the “ForteBio IgG KD Hu GARP-proTGFβ1 in solution (M) Avid” value is on record as “N.B”. Also, in data set [3], the “Hu LTBP1-proTGFβ1 Kon” value worked out at 140000 M⁻¹ s⁻¹ and the “Hu LTBP1-proTGFβ1 Koff” value came to 6.82e-05 s⁻¹. For the same molecule, in [4], the “Hu LTBP3-proTGFβ1 Kon” value stood at 203000 M⁻¹ s⁻¹ and the “Hu LTBP3-proTGFβ1 Koff” value turned out to be 7.47e-05 s⁻¹.

B2: SR-AB63-HuFab: human Fab fragment of SR-AB63 used in SPR (antibody, V domains shown)
VH: B1 VH with A12V, S99G, A106I, D110Q
VL: B1 VL with M4L, K27Q, V28S, Y50A, S53N, N92F, F96L
For B2, the ka worked out at 2660 M⁻¹ s⁻¹ in data set [5], 371000 M⁻¹ s⁻¹ in [6], 394000 M⁻¹ s⁻¹ in data set [7] and 5000 M⁻¹ s⁻¹ in data set [8]. Further, the kd in data set [5] worked out at 0.00093 s⁻¹; in data set [6], 3.82e-08 s⁻¹; in data set [7], 4.99e-05 s⁻¹; in data set [8] it was 0.00108 s⁻¹.

B3: Ab2: TGFβ1 inhibitor test article of a four-week rat toxicology study; b152 gives same data for a context-independent TGFβ1 inhibitor antibody (antibody, V domains shown)
VH: QVQLVQSGAEVKKPGASVKVSCKASGYTFTSYGISWVRQAPGQGLEWMGWISAYNGNTNYAQKLQGRVTMTTDTSTSTAYMELRSLRSDDTAVYYCARAPLGNFDSWGQGTMVTVSS
VL: NFMLTQPHSVSESPGKTVTISCTRSSGSIASNYVQWYQQRPGSSPTTVIYEDNQRPSGVPDRFSGSIDSSSNSASLTISGLKTEDEADYYCQSYDSSNHPVVFGGGTKLTVL
For the molecule B3, the MTD in data set [9] was over 100 mg/kg. The molecule also displayed an NOAEL in data set [9] (highest dose evaluated) of 100 mg/kg.

B4: SR-AB43: cycle 3 light chain-optimized antibody, lineage SR-AB23; CDRs SEQ ID NO: 172-177 (antibody, V domains shown)
VH: QVQLVESGGGVVQPGRSLRLSCAASGFTFRSYVMHWVRQAPGKGLEWVAVISHEGSLKYYADSVKGRFTISRDNSKNTLYLQMNSLRAEDTAVYYCARPRIAARRGGFGYWGQGTLVTVSS
VL: B3 VL with S28N, A30D, S31Y, Q54V, S97D, H99Q, P100R
For the molecule B4, in data set [2], the “ForteBio IgG KD Hu GARP-proTGFβ1 (M) Avid” value was “N.B” and the “ForteBio IgG KD Hu GARP-proTGFβ1 in solution (M) Avid” value was “N.B”. For the same molecule, in [3], the “Hu LTBP1-proTGFβ1 Kon” value stood at 244000 M⁻¹ s⁻¹ and the “Hu LTBP1-proTGFβ1 Koff” value worked out at 0.000159 s⁻¹. For the same molecule, in data set [4], the “Hu LTBP3-proTGFβ1 Kon” value is 337000 M⁻¹ s⁻¹ and the “Hu LTBP3-proTGFβ1 Koff” value is 6e-05 s⁻¹. In data set [6] (SPR, Fab fragments, antigen not given), the “KD of Fab fragments” value was “sub-nanomolar”.

B5: SR-AB42-HuFab: human Fab fragment of SR-AB42 used in SPR (antibody, V domains shown)
VH: B4 VH
VL: B3 VL with S28N, A30D, S31N, S96Y, S97D, N98T, H99Q, P100G
Take B5: the ka was 1.23e+08 M⁻¹ s⁻¹ in data set [10]; 155000 M⁻¹ s⁻¹ in [5]; 543000 M⁻¹ s⁻¹ in [6]; 405000 M⁻¹ s⁻¹ in [7]; 80900 M⁻¹ s⁻¹ in [8]. Further, the kd in data set [10] stood at 0.397 s⁻¹; in data set [5], 0.00604 s⁻¹; in data set [6] it was 0.000105 s⁻¹; in [7] it was 0.000142 s⁻¹; in data set [8], 0.00353 s⁻¹.

B6: SR-AB43-HuFab: human Fab fragment of SR-AB43 used in SPR (antibody, V domains shown)
VH: B4 VH
VL: B3 VL with S28N, A30D, S31Y, Q54V, S97D, H99Q, P100R
For the molecule B6, the ka in [10] worked out at 1.82e+09 M⁻¹ s⁻¹; in data set [6], 1.03e+06 M⁻¹ s⁻¹. Also, the kd is 6.37 s⁻¹ in data set [10] and 0.000284 s⁻¹ in data set [6].
